B1: GST-tagged S100A1 (natural protein)
chain: MGSELESAMETLINVFHAHSGQEGDKYKLSKKELKDLLQTELSGFLDVQKDADAVDKVMKELDENGDGEVDFKEYVVLVAALTVACNNFFWETS
B2: recombinant mouse S100A1 (untagged) (natural protein)
chain: B1 chain

How the values were obtained:
[1] = target: T1, ryanodine receptor type 1 (RyR1), endogenous, purified from mouse skeletal muscle (mouse, UniProt E9PZQ0 1-5035); test: pull-down
[2] = target: T1, ryanodine receptor type 1 (RyR1), …; test: cryo-EM structure
cryo-EM structure = target: the molecule itself; test: cryo-EM structure

T1 sequence (E9PZQ0 whole entry): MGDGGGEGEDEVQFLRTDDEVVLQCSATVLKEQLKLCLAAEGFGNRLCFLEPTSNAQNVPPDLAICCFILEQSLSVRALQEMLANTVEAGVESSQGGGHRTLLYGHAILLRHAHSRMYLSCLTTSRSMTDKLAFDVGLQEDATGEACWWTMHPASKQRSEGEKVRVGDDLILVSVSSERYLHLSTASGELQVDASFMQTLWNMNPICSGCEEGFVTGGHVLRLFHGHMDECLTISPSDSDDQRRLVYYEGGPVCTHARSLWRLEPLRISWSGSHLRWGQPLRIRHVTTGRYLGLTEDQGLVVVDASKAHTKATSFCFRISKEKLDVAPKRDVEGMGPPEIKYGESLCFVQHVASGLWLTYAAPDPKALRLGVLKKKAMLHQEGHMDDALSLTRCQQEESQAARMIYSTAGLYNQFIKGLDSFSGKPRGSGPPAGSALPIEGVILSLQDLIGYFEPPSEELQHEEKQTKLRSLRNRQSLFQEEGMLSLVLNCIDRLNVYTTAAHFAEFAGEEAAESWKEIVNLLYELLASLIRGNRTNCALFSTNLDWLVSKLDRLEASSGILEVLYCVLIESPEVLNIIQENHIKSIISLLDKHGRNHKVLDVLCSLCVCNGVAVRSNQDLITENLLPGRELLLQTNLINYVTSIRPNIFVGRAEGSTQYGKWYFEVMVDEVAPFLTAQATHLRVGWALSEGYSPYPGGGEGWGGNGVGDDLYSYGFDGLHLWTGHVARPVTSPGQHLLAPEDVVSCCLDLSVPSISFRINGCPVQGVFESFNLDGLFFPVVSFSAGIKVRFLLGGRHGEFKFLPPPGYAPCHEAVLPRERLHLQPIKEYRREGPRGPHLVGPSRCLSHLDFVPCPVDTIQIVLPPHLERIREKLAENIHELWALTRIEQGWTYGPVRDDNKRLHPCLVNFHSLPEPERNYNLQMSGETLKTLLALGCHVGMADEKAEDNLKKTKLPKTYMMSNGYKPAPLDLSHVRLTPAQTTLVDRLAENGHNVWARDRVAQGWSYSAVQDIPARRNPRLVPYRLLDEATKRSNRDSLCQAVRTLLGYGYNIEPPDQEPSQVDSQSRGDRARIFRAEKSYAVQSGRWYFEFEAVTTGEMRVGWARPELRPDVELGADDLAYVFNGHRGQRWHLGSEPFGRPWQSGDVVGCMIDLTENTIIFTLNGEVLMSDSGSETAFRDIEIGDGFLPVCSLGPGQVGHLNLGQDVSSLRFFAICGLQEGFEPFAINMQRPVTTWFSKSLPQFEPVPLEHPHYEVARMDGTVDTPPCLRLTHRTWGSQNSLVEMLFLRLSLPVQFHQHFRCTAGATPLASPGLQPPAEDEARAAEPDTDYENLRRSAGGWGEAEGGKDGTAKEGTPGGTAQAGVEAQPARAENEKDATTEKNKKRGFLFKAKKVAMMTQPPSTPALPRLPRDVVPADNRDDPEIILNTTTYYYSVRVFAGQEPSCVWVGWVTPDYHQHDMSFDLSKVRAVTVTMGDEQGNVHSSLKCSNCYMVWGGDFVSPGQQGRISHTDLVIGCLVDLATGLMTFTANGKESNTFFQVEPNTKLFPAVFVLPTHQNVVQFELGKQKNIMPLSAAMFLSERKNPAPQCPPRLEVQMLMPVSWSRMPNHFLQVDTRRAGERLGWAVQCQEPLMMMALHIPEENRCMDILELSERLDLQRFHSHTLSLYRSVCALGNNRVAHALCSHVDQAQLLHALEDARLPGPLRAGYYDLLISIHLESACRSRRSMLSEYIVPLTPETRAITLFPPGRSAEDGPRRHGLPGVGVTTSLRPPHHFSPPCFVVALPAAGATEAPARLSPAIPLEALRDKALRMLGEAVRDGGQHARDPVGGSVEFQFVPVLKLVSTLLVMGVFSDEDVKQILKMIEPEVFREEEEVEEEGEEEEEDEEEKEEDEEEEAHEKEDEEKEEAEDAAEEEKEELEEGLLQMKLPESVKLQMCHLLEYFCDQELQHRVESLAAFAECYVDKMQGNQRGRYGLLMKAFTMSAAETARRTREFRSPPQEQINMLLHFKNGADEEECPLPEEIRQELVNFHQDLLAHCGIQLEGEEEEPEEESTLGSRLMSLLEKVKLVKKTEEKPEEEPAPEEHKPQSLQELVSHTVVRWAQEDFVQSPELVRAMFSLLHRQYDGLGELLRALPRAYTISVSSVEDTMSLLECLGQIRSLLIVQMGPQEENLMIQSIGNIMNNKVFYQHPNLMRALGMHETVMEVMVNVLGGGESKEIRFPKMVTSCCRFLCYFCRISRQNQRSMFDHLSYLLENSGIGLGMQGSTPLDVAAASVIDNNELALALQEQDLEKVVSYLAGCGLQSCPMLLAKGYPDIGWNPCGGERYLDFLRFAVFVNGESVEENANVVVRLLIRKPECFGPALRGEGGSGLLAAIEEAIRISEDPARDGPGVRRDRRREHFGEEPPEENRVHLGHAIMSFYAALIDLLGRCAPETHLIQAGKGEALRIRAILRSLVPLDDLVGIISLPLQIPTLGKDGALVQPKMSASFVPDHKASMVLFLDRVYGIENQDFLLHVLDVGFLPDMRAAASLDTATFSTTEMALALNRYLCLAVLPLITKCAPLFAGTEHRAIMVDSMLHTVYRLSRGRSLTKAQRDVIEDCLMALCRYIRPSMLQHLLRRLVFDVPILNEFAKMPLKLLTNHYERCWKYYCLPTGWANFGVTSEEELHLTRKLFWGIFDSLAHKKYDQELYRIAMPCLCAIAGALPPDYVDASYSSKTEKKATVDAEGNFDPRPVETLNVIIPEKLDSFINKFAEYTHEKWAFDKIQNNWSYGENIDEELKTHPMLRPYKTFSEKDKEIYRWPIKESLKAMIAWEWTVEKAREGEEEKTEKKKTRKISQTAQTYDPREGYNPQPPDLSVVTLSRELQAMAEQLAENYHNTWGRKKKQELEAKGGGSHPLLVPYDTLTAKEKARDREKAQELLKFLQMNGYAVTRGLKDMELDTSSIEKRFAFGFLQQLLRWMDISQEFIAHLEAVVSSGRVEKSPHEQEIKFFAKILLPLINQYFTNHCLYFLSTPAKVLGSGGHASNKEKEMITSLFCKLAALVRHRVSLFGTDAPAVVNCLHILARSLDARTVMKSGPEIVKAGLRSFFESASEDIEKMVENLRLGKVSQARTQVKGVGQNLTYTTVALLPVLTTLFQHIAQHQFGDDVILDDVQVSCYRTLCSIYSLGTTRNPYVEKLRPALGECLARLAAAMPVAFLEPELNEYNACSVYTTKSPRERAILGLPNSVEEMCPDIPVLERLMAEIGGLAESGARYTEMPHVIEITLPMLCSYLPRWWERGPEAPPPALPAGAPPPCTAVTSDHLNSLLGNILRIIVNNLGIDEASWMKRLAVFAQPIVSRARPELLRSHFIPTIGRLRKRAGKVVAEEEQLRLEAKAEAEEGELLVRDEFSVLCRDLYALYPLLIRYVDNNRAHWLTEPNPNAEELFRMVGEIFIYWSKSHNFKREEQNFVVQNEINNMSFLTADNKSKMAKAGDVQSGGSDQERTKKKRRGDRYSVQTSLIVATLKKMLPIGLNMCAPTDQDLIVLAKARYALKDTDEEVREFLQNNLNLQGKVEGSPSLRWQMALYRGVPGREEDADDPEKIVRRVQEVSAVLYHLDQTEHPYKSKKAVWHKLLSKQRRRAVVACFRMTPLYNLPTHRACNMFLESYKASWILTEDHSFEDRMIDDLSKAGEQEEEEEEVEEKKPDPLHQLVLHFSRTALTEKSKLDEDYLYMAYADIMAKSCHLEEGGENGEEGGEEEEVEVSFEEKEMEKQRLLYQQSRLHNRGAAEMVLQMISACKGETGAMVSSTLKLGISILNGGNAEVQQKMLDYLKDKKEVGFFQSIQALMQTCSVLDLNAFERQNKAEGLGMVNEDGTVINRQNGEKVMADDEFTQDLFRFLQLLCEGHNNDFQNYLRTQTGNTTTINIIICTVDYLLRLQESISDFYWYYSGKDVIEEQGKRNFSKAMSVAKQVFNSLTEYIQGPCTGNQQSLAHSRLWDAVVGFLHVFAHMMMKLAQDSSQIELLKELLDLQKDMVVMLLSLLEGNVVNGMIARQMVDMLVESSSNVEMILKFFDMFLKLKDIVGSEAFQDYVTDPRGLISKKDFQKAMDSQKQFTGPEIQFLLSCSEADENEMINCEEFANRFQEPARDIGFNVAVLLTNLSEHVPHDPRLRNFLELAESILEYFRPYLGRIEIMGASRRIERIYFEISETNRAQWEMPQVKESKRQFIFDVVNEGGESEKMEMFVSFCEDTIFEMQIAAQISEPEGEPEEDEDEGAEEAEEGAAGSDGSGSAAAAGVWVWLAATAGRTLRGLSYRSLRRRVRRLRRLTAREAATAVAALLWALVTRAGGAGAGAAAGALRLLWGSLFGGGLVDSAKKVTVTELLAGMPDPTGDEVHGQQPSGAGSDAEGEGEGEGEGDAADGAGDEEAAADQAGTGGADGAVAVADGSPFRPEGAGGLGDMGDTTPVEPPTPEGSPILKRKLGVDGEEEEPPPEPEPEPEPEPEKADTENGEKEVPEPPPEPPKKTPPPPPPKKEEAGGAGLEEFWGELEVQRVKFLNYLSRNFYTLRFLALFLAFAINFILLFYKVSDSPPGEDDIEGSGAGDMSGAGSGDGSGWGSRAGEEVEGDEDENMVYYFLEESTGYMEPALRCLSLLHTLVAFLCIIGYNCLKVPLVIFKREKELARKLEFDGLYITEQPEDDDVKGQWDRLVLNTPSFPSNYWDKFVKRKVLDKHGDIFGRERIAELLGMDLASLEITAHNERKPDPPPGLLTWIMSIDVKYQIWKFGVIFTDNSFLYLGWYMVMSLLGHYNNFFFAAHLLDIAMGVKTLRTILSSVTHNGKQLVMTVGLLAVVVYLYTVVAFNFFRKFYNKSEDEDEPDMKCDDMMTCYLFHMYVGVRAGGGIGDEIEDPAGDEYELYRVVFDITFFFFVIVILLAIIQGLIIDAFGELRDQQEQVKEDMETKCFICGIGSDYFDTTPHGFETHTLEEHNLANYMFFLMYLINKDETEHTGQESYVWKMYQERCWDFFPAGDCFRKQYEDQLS

Binder	binding result [1]	binding result [2]	stoichiometry N (cryo-EM structure)
B1	binds		
B2		binds	2
